Assay results from a protein production outcome set (Wang et al. 2014).

Experiment: label from the status in PepcDB records

Sequence	protein production
MSEAIVTIVVVPRERFSCTQASLESIYEHTKIPFKLIYVDGNSPTKVRKYLQKQAQEKNFQLIRTDYYLSPNHARNIGLSHVDTKYLVFLDNDVIVSPGWLQALVNCAETTGATVVGPLMCEKEPIHERIHFAGGESHIVIDVKGRRHLREKMYKQGHQVSELRSQLQQTETELAEFHCTLIRREIFEQIGYLDEEMLNTKEHLDFCMNVIQAGGKVYFEPDSLVTYVPGPPLEWSDLHFYMLRWSDAWTLASLQRIRAKWNLSEDGYFQTKYKKLGVRRVATIIKPFVRQVSFGNENKPLKRFLKNLDRKLNRFLTDRYTEMLPQRKLELPIIKKEISSVKEFTQV	failed
MSEDELYELLKTKYGFDEFRPGQLAVIQKLLAGQDVLAVLPTGTGKSLIYQLVGTALPGLVVVVSPLISLMQDQVARLNYQGEKQVAALTSQLDYGARQYLLNHLGQLKFLFISPEMLGQDIIQTALMQVQLALLVIDEAHCISTWGPDFRPDYRRLGQIRQRLQAPTTLMLTATATQRVRQDILTQLTVPDAQQILYSVNRPNIYLAVEQVNDEASKRATLQHLVTSARGPVIVYFTSKRQTDLIAEWLRTTTTLRVAAYHAGLATDDRFKIQQQFMAGQLDVICATSAFGMGINKADIRLVIHYHLPTTLADYVQEIGRAGRDGQQAMAIMLYAPGDENLVRNLNELTAATPNEIQQDYSRYQAQQPPTDDRSKVLQSYWLQGTPPTTVATIFADRQVAKERELRTLMSYVQTTTCHRTVMLTYFGEPAVTHTDQCCQLAAEPLPLAALGLMATHDEPTATIMSWDQHLAQLFLPNS	failed
MSEDLMDLSPEEGIERFLRHREPSVRESTMRNAKTRLRFFNEWCEERDIENLNNLTGRDLADFVAWRRGDIAALTLQKQLSTIREALRYWADIEGVDDGLAEKVHAPELPDGAESREVHLSADRAHQILDFLHDYRYASRDHVVFLILWKTAMRRSALRSLDVDDLRPDDYALVLEHRIDEGTKLKNGEDGERWVYLGPSDYQVVDDYLDNPDRYERTDDYGRKPLITSQHGRPAGDTIYKWVNKLTQPCVLNGCPHDADPSDPSTCEALGSRAAHSKCPSSRSPHGLRRGSITYHLNSDVSPEIVSERCDVSLEVLYEHYDVRTNQEKMAVRKKQLERI	failed
MSEDNFDDEFDGSLPSGPRHPMARRFRGYLPVVVDVETGGFNSATDALLEIAATTVGMDEKGFLFPEHTYFFRIEPFEGANIEPAALEFTGIKLDHPLRMAVQEEAALTEIFRGIRKALKANGCKRAILVGHNSSFDLGFLNAAVARTGIKRNPFHPFSSFDTATLAGLAYGQTVLAKACQAAGMEFDNREAHSARYDTEKTAELFCGIVNRWKEMGGWMDDDD	not failed
MSEDRTGHQGISGPATRAIHAGYRPDPATGAVNVPIYASSTFAQDGVGGLRGGFEYARTGNPTRAALEASLAAVEEGAFARAFSSGMAATDCALRAMLRPGDHVVIPDDAYGGTFRLIDKVFTRWDVQYTPVRLADLDAVGAAITPRTRLIWVETPTNPLLSIADITAIAELGTDRSAKVLVDNTFASPALQQPLRLGADVVLHSTTKYIGGHSDVVGGALVTNDEELDEEFAFLQNGAGAVPGPFDAYLTMRGLKTLVLRMQRHSENACAVAEFLADHPSVSSVLYPGLPSHPGHEIAARQMRGFGGMVSVRMRAGRRAAQDLCAKTRVFILAESLGGVESLIEHPSAMTHASTAGSQLEVPDDLVRLSVGIEDIADLLGDLEQALG	not failed
MSEFEGWIKWLEPVFLLWKPEDPGYERPAYRDWTKEEDEPKYSPEKELALLDKQILASDGFDIDFTHFRCVFNYHLAYLDSHEFVDEPETTRDLLERLSRKALDDYNQESVVKANFHFCCAIMFLITFEVVDPYDNLIKLFQTRVRHAEDIVTEYVFCRPKPNQGVECIGVKNNDGKDVQTNVKEQEIPCMYGWFLRVITITFTLQIGVGASICHKE	failed
MSEFIMNNLEQTARRWLEERGVTVEKIAELVYYLQSKYHPDLTMEECIENVNRVISKREVQNAILTGIQLDKLAEDGRLDEPLQSIIRRDEGLYGVDEILALSIVNVYGSIGFTNYGYIDKQKPGILQYLNDKSTGKCNTFLDDIVGAIAAAASSRLAHRAANAE	not failed
MSEFMQRFADLRDRKAYAEIVDALPYVKLMGTSMAEDEQGELRFELPFLQRNVGNTTLPALHGGLIGGFMESAAMIHLMWNRESLEAPKIVDFSLDYLRPGRPQTLFAQCEITKQGKRVAHVLIEAWQDDRSKPVAVARAHFLLTNLEHHHHHH	not failed
MSEFRLTQISDTHLGRRFPGLIANFHRVCEHIDADRPDLVINTGDVSFDGPTSRDDVVFAKGLHDALPVTCRYLPGNHDIGDNPTAIGPAPKPPVSEAYRQQFRDIIGEDHWSFEAAGWCFIGLNTLVMNSGLAFEAAQFDWLTQEIARTNGRPVALFLHKPVFLNLPDDPETPETSIRYVPQPARARLIEMFARVDLRLIASGHVHQRRDFTFRHTRHVWAPSVGFKINDQRQDRIAIKETGLVEYRFRGDSLEVRHLRAAGQIDIDIEEVLLQMGGEH	failed
MSEFTRVFNYKIKLIIAISLFFTQLISANASVEVNISVEQPEHHLANVELKFEQVNESKVNFYLPTWRTGRYETLNLANGIREFIAQDSQGNVLSWHKIDKNTWQVSDAKNKKITLTYQVYANQLAKRTRHIDDSHAFLDSSAVVMYSQASRSSEHIVQLSVPKLWKSFSGLESGNNSHQFIAHDYDQLVDSPIESGINEHYQFSVDNRQYELVIWGEGNYDSAKMVKDLQILVKQSKHVWQGYPFKRYVFMVHATSGARGATEHVNSTIIQRSRFKFSTRKDYLSFIAVAAHEFVHTWNVKQYRPKGIVPYDYQQENYSNLLWLVEGSTSYLQYQLLLRGNLMTTDEFFTALAKRITAHAHKPGKESQSVAQASFDAWISEGGDYGNNHSVNIYSEGFLASWLLDFDILAKTALSKSYRNAHNQLYQQHRLPKGYDEQDVLSILEQITGDDYQVWWQKNIQGTTKINFNRLLAKAGLKMSYAKNVKDKSSEQSKVWTGLKTKLDNHDLIVSSVEKNSPAWDAGLTTEDVIVAIDGLRLLDNELDNRLKDFKPKQTITVTYFRRDKLITSRLKLAAIPKNKLKIIPIAKASVEQKAFFKAWMGVDFPEKK	failed
MSEHFLQQKYNSISENPIYLFWFLQFCFWSFVSLISLVSLTLWYVQIDVAHLNHTFLQSFVGVVFSLPLYWAFMRCWNTSIFIRVFVSITSVLLISFIWTVIRVELYIRLTGTDEIWTQFGGWYFSSIFIYFCWTGFFHGIRYYQLLQFEHEIMLKKEAEAKTEQLKRLSAQTVARDAKIKMLRYQLNPHFLCNTLNAINSLIECELPEKAQLMTVQLSKFLRYSLDNDPDTKIALEFELKALELYLEIEKTRFGERLQLDFQISEAAKAAFIPSLLLQPLIENSMKHVIAQNEEGGVISLSADVIDNMLVLELSDTGSAKRVDINKIKSKTGRGVGLRNIDERLKALYTDNYVYNLNVRPSGGLKTTIKLPLDSQGEPDIVNQAYNSMKVC	failed
MSEKPWVSTQPLVTKRGLPLNIDRDIAYRPASAVSLSEVAQFITRETGLPVVVAPDALNPSILSSRPGNSGAAAAPPAVTMSNPDNLAALMPTGLAGSLPSGARSLESELLSGTPGLISGIKFSGPVSALLNQVTSRLGLSWHYDPQLQGARITYFDTRTFDVWAFGDDQVIESVVKSGLITSTGSGSNGSGGTSSGTGASGDSGSNQSTTVQIKTSLLSDIENNVKAMLSTQPAGRIFLSRSTGTLTVSDRPEVLNRIASYLQSTNRNITRQVLFNVKIFEVNFTDRDQTAVNWKAVYKSVSGRWGLSLANKVAGISTDAISGSVSILDTSSSPWAGSSAVIQALSEQGRISDVRSPSITTLNLQPAPIQIGNVKSYVASSSTTTTASVGSSTSLTPATITSGFNMMLLPKIIDRDNMLLMISISMSSKPTFTTFTSNGSSVQTADFDTKNAAPKVLLRSGQTLVLTGFEENTENADKTGVGDASFFGLGGSRTRSSLEHHHHHH	failed
MSELARIVPDSEKISHILIEQGRKITFYSYFSNTFVLGIIAYILVDNTVALDKNSLFFVKTLPFRKKDISLSFMLFKFVIMILLYELVMIISTPAIKLVTTVPIEYVIFFIVQHLFYLVVIGVIEFIHCLFTFFLKRRVKQINSLKVIGDSLLMIFATFYFFDFRYGLELFLANQLWSISYMIPITFFLIVVCLMLISIGLLRLISILENQMSQHSKYIYIPFLNKVIFRYKANWYFISFTTVVMLVIFFQSGLRTMLFILTTVMAFSGVLLLSYGDITADFRKQYDLLRIKIRNEWLSQLLLVIMLAMPLLLLCFWGFGELAQLITALSLSLVAIILGYVFPKSQGSLNETTSLLLLFIVFVLVSLLTNRSFGWLILIVLVLLHLLVIKKVRNEKE	failed
